{"source": "patent US20170189519A1", "assay_in_all_cases": "ELISA, coated CR6261, P. pastoris medium", "conditions_in_all_cases": "remark: other sources report otherwise", "key": {"[1]": {"molecular_target": "104C4 (influenza A H1N1 A/Brisbane/59/2007)"}, "[2]": {"molecular_target": "112G6 (influenza A H1N1 A/Brisbane/59/2007)"}, "[3]": {"molecular_target": "113E7 (influenza A H1N1 A/Brisbane/59/2007)"}, "[4]": {"molecular_target": "115A1 (influenza A H1N1 A/Brisbane/59/2007)"}, "[5]": {"molecular_target": "123E2 (influenza A H1N1 A/Brisbane/59/2007)"}, "[6]": {"molecular_target": "126C3 (influenza A H1N1 A/Brisbane/59/2007)"}, "[7]": {"molecular_target": "127A7 (influenza A H1N1 A/Brisbane/59/2007)"}, "[8]": {"molecular_target": "129C2 (influenza A H1N1 A/Brisbane/59/2007)"}, "[9]": {"molecular_target": "13185 (influenza A H1N1 A/Brisbane/59/2007)"}, "[10]": {"molecular_target": "134D3 (influenza A H1N1 A/Brisbane/59/2007)"}, "[11]": {"molecular_target": "134H10 (influenza A H1N1 A/Brisbane/59/2007)"}, "[12]": {"molecular_target": "138F8 (influenza A H1N1 A/Brisbane/59/2007)"}, "[13]": {"molecular_target": "145C9 (influenza A H1N1 A/Brisbane/59/2007)"}, "[14]": {"molecular_target": "145E7 (influenza A H1N1 A/Brisbane/59/2007)"}, "[15]": {"molecular_target": "162B3 (influenza A H1N1 A/Brisbane/59/2007)"}, "[16]": {"molecular_target": "171E5 (influenza A H1N1 A/Brisbane/59/2007)"}, "[17]": {"molecular_target": "171F6 (influenza A H1N1 A/Brisbane/59/2007)"}, "[18]": {"molecular_target": "185G7 (influenza A H1N1 A/Brisbane/59/2007)"}, "[19]": {"molecular_target": "187H10 (influenza A H1N1 A/Brisbane/59/2007)"}, "[20]": {"molecular_target": "188F4 (influenza A H1N1 A/Brisbane/59/2007)"}, "[21]": {"molecular_target": "191D5 (influenza A H1N1 A/Brisbane/59/2007)"}, "[22]": {"molecular_target": "192C4 (influenza A H1N1 A/Brisbane/59/2007)"}, "[23]": {"molecular_target": "193B6 (influenza A H1N1 A/Brisbane/59/2007)"}, "[24]": {"molecular_target": "194E4 (influenza A H1N1 A/Brisbane/59/2007)"}, "[25]": {"molecular_target": "204C5 (influenza A H1N1 A/Brisbane/59/2007)"}, "[26]": {"molecular_target": "213C11 (influenza A H1N1 A/Brisbane/59/2007)"}, "[27]": {"molecular_target": "216E5 (influenza A H1N1 A/Brisbane/59/2007)"}, "[28]": {"molecular_target": "220C9 (influenza A H1N1 A/Brisbane/59/2007)"}, "[29]": {"molecular_target": "230G9 (influenza A H1N1 A/Brisbane/59/2007)"}, "[30]": {"molecular_target": "239D2 (influenza A H1N1 A/Brisbane/59/2007)"}, "[31]": {"molecular_target": "243D6 (influenza A H1N1 A/Brisbane/59/2007)"}, "[32]": {"molecular_target": "245C9 (influenza A H1N1 A/Brisbane/59/2007)"}, "[33]": {"molecular_target": "252F5 (influenza A H1N1 A/Brisbane/59/2007)"}, "[34]": {"molecular_target": "272H2 (influenza A H1N1 A/Brisbane/59/2007)"}, "[35]": {"molecular_target": "275D4 (influenza A H1N1 A/Brisbane/59/2007)"}}, "data": [{"binder": "CR6261 (antibody, V domains shown) VH: EVQLVESGAEVKKPGSSVKVSCKASGGPFRSYAISWVRQAPGQGPEWMGGIIPIFGTTKYAPKFQGRVTITADDFAGTVYMELSSLRSEDTAMYYCAKHMGYQVRETMDVWGKGTTVTVSS VL: QSVLTQPPSVSAAPGQKVTISCSGSSSNIGNDYVSWYQQLPGTAPKLLIYDNNKRPSGIPDRFSGSKSGTSATLGITGLQTGDEANYYCATWDRRPTAYVVFGGGTKLTVLG", "values": [{"measurement": "CR6261 binding signal", "setting": "[1]", "value": 521000}, {"measurement": "CR6261 binding signal", "setting": "[2]", "value": 544000}, {"measurement": "CR6261 binding signal", "setting": "[3]", "value": 966000}, {"measurement": "CR6261 binding signal", "setting": "[4]", "value": "1.18e+06"}, {"measurement": "CR6261 binding signal", "setting": "[5]", "value": 477000}, {"measurement": "CR6261 binding signal", "setting": "[6]", "value": 220000}, {"measurement": "CR6261 binding signal", "setting": "[7]", "value": 233000}, {"measurement": "CR6261 binding signal", "setting": "[8]", "value": 199000}, {"measurement": "CR6261 binding signal", "setting": "[9]", "value": 844000}, {"measurement": "CR6261 binding signal", "setting": "[10]", "value": 304000}, {"measurement": "CR6261 binding signal", "setting": "[11]", "value": 592000}, {"measurement": "CR6261 binding signal", "setting": "[12]", "value": 348000}, {"measurement": "CR6261 binding signal", "setting": "[13]", "value": 182000}, {"measurement": "CR6261 binding signal", "setting": "[14]", "value": 132000}, {"measurement": "CR6261 binding signal", "setting": "[15]", "value": 280000}, {"measurement": "CR6261 binding signal", "setting": "[16]", "value": 880000}, {"measurement": "CR6261 binding signal", "setting": "[17]", "value": 140000}, {"measurement": "CR6261 binding signal", "setting": "[18]", "value": 506000}, {"measurement": "CR6261 binding signal", "setting": "[19]", "value": 299000}, {"measurement": "CR6261 binding signal", "setting": "[20]", "value": 287000}, {"measurement": "CR6261 binding signal", "setting": "[21]", "value": 124000}, {"measurement": "CR6261 binding signal", "setting": "[22]", "value": 343000}, {"measurement": "CR6261 binding signal", "setting": "[23]", "value": 207000}, {"measurement": "CR6261 binding signal", "setting": "[24]", "value": 409000}, {"measurement": "CR6261 binding signal", "setting": "[25]", "value": 833000}, {"measurement": "CR6261 binding signal", "setting": "[26]", "value": 667000}, {"measurement": "CR6261 binding signal", "setting": "[27]", "value": 335000}, {"measurement": "CR6261 binding signal", "setting": "[28]", "value": "1.09e+06"}, {"measurement": "CR6261 binding signal", "setting": "[29]", "value": 855000}, {"measurement": "CR6261 binding signal", "setting": "[30]", "value": 570000}, {"measurement": "CR6261 binding signal", "setting": "[31]", "value": 132000}, {"measurement": "CR6261 binding signal", "setting": "[32]", "value": 180000}, {"measurement": "CR6261 binding signal", "setting": "[33]", "value": 422000}, {"measurement": "CR6261 binding signal", "setting": "[34]", "value": 263000}, {"measurement": "CR6261 binding signal", "setting": "[35]", "value": 327000}]}]}
